Measurements published in patent publication US20250049960, “Multicomponent systems for site-specific genome modifications” (The Regents of the University of California, published 2025).

B1: O. latipes R2 3'UTR RNA (ssRNA)
RNA: UGAGGGGGACAGCUGGGAGUCUCGGCAUGAUUACAAAUCUUGCGCUGCACUCGGAUGUCGUCCCCGUGACGGACACAUUAAUCCGGAAAGCGAGUGGUGACUCGCCUCAAG
B2: D. simulans R2 3'UTR RNA (ssRNA)
RNA: UAGCUAAAACGUUUGGUUCAAAACAUUUGCUUGCUGUCUUGGCAUAACAUCAAUAAAGGCAUAAACAUCGCAAAAUAAUGGUUAUAUAUAAAUGGCUAUGAGGAUGGUUUUAGUACGUAGGCGUUGCGGAACUUCGGUUCAGAUAGAGCAAUGAAUCGUGCAUGCUAGGAAAACUGACCACACGCAGUGUUGGCAGCCCUAGUAUCUUUCGAUAGAUUUCCAUACCUCCGCGAUCAAAAAAAAAAAAAAAAAAAAAAA
B3: B. mori R2 3'UTR RNA (ssRNA)
RNA: UGAGCCUUGCACAGUAGUCCAGCGGUAAGGGUGUAGAUCAGGCCCGUCUGUUUCUCCCCCGGAGCUCGCUCCCUUGGCUUCCCUUAUAUAUUUUAACAUCAGAAACAGACAUUAAACAUCUACUGAUCCAAUUUCGCCGGCGUACGGCCACGAUCGGGAGGGUGGGAAUCUCGGGGGUCUUCCGAUCCUAAUCCAUGAUGAUUACGACCUGAGUCACUAAAGACGAUGGCAUGAUGAUCCGGCGAUGAAAA

How the values were obtained:
Conditions in all cases: tags: N-terminal FLAG (GT linker), from HEK293T
OrLa R2 RT = target: T1, OrLa R2 RT (Oryzias latipes); assay: pulldown; co-expressed in HEK293T, FLAG IP, cognate; more selective
T1 chain: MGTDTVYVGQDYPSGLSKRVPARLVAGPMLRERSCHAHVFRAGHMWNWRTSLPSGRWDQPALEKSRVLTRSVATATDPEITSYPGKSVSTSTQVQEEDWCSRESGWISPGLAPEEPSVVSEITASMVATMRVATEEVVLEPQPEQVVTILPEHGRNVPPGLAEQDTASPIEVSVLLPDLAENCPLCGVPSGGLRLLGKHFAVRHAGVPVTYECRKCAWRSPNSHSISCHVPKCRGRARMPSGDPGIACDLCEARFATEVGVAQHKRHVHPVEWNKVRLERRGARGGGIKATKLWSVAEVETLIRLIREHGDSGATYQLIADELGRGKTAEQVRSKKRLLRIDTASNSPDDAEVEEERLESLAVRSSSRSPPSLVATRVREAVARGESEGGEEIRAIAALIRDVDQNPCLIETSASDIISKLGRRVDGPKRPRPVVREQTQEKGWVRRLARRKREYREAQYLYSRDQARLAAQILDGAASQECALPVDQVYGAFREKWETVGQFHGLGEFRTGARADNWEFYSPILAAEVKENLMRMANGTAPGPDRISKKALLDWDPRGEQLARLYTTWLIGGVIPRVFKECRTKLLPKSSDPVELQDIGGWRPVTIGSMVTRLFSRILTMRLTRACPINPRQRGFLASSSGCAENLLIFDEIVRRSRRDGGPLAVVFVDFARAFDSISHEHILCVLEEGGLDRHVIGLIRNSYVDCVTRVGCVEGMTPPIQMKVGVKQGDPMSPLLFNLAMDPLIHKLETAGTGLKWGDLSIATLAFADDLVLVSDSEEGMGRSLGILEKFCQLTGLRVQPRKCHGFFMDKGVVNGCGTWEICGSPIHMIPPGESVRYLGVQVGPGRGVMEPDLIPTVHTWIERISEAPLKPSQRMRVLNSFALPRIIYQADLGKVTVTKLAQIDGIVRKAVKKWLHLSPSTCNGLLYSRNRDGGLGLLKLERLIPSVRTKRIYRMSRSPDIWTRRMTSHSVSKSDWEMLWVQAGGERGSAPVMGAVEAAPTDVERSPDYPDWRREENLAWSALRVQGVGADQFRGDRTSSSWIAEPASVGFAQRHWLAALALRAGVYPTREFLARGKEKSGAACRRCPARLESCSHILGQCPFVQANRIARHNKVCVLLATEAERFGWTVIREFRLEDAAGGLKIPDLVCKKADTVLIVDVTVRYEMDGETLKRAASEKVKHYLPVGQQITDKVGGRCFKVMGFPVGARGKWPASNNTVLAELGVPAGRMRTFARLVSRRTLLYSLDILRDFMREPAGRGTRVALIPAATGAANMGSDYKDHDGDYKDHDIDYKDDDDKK
Excerpt: (§1) 9 populations of HEK293T cells were transfected with different combinations of plasmids comprised of one of the pcDNA3.1 backbone plasmids expressing RT protein ORFs modified from B. mori (SEQ ID NO. 35, D. simulans (SEQ ID NO. 32), and O. latipes (SEQ ID NO. 8), and an additional plasmid expressing the 3′ UTR RNA from B. mori (SEQ ID 163), D. simulans (SEQ ID NO. 164), or O. latipes (SEQ ID NO. 154) R2 elements (see FIG. 11 A). Each RT protein was co-expressed with each 3′ UTR RNA.
(§2) After allowing sufficient time for the RT protein plasmids to be transcribed and translated and to associate with the transcribed 3′ UTR RNAs, cells were lysed and any RT protein+RNA template complexes were purified by FLAG immunopurification (Sigma FLAG antibody resin). RNA present in each input cell lysate and RNA associated with each immunopurified sample was purified. Equivalent aliquots of each input RNA sample and each RT-bound RNA sample were affixed to Hybond N+membrane (Cytiva) in a grid of spots. Membranes containing spots for each type of 3′ UTR RNA were probed together for the presence of the 3′ UTR RNA, as detected by hybridization to complementary oligonucleotide probes that were ³²P 5′-end-radiolabeled using T4 polynucleotide kinase (NEB). […]

BoMo R2 RT [1] = target: T2, BoMo R2 RT (Bombyx mori); assay: pulldown; co-expressed in HEK293T, FLAG IP, non-cognate
T2 chain: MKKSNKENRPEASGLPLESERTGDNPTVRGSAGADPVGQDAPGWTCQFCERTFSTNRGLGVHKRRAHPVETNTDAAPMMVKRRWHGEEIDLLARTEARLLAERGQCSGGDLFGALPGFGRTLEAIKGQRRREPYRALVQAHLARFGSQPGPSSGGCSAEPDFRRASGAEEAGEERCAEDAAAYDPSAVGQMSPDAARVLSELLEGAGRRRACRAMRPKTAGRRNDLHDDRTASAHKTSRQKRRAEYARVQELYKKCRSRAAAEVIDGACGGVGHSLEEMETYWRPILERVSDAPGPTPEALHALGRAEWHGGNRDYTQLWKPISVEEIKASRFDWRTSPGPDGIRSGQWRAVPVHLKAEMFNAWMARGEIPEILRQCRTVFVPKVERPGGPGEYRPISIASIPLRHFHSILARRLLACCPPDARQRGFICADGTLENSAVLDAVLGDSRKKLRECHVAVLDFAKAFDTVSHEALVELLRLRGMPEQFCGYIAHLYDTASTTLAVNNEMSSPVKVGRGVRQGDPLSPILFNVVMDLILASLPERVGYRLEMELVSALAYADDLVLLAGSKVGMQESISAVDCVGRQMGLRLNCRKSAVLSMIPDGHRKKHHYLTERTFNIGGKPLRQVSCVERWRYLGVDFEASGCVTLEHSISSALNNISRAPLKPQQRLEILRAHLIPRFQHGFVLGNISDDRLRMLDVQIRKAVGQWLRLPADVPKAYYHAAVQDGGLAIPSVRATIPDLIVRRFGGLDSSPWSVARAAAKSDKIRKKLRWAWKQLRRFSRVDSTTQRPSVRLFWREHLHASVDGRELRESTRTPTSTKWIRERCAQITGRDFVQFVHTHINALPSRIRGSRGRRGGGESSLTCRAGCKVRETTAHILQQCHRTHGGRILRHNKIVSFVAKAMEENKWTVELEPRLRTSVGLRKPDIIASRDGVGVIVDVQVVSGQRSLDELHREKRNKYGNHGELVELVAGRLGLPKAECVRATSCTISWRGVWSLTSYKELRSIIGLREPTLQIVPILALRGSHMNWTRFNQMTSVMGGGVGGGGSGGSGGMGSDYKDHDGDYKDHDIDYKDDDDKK
Excerpt: as §1, §2

BoMo R2 RT [2] = target: T2, BoMo R2 RT; assay: pulldown; co-expressed in HEK293T, FLAG IP, cognate
Excerpt: as §1, §2

| Binder | binding result (OrLa R2 RT) | binding result (BoMo R2 RT [1]) | binding result (BoMo R2 RT [2]) |
| --- | --- | --- | --- |
| B1 | binds | binds |  |
| B2 |  | binds |  |
| B3 |  |  | binds |
